Experimental data published in patent US20200240995A1, “KDAC VARIANTS AND USES THEREOF” (Max-Planck-Gesellschaft Zur Forderung Der Wissenschaften …, priority 2017, published 2020).

System: Firefly luciferase modified at K529
Test: Dual luciferase reporter (DLR) assay in E. coli whole cell lysates
Format: cell-based
Conditions: normalized to Renilla luciferase, relative to wild-type CobB; for DLR activity [rel. to wild-type], AcK: AcK at K529; for DLR activity [rel. to wild-type], AlocK: AlocK at K529; for DLR activity [rel. to wild-type], BocK: BocK at K529; for DLR activity [rel. to wild-type], CrK: CrK at K529
Procedure: FIG. 3: Evolved CobB variants can activate Firefly luciferase modified at K529. Dual luciferase reporter (DLR) assays were performed with E. coli producing DLR with the indicated modification of K529 in the Firefly enzyme. Activities were normalized to genetically fused Renilla luciferase and plotted relative to the activity observed for wild-type CobB on the same substrate. A) CobB mutant able to discriminate crotonyl-over acetyl-lysine. B) CobB mutants active against protected forms of lysine.
The mutants isolated in the selections were tested using Firefly dual luciferase assays. E. coli DH10B ΔpyrF ΔcobB were transformed with plasmids expressing Firefly luciferase with the relevant modification on lysine-529 and the cobB mutants. Luciferase activity was tested directly in whole cell lysates and compared to the activity of wild-type cobB towards the modifications. The activities observed for the evolved KDAC variants correlated well with the activities observed in the uracil selections (FIG. 3).

Row | Molecule | DLR activity [rel. to wild-type], AcK | DLR activity [rel. to wild-type], AlocK | DLR activity [rel. to wild-type], BocK | DLR activity [rel. to wild-type], CrK
1 | Debocylase-1: E. coli CobB mutant I131V V148L (protein, Debocylase-1, E. coli CobB mutant I131V V148L) KPRVLVLTGAGISAESGIRTFRAADGLWEEHRVEDVATPEGFDRDPELVQAFYNARRRQLQQPEIQPNAAHLALAKLQDALGDRFLLVTQNVDNLHERAGNTNVIHMHGELLKVRCSQSGQVLDWTGDVTPEDKCHCCQFPAPLRPHLVWFGEMPLGMDEIYMALSMADIFIAIGTSGHVYPAAGFVHEAKLHGAHTVELNLEPSQVGNEFAEKYYGPASQVVPEFVEKLLKGLKAGSIA | 1.25 rel. to wild-type | 8.35 rel. to wild-type | 8.65 rel. to wild-type | 2.90 rel. to wild-type
2 | Dealocase-3: E. coli CobB mutant I131S V148L (protein, Dealocase-3, E. coli CobB mutant I131S V148L) KPRVLVLTGAGISAESGIRTFRAADGLWEEHRVEDVATPEGFDRDPELVQAFYNARRRQLQQPEIQPNAAHLALAKLQDALGDRFLLVTQNSDNLHERAGNTNVIHMHGELLKVRCSQSGQVLDWTGDVTPEDKCHCCQFPAPLRPHLVWFGEMPLGMDEIYMALSMADIFIAIGTSGHVYPAAGFVHEAKLHGAHTVELNLEPSQVGNEFAEKYYGPASQVVPEFVEKLLKGLKAGSIA | 0.35 rel. to wild-type | 6.00 rel. to wild-type | 0.65 rel. to wild-type | 1.00 rel. to wild-type
3 | Dealocase-2: E. coli CobB mutant A37G R56G I92V (protein, Dealocase-2, E. coli CobB mutant A37G R56G I92V) KPRVLVLTGAGISAESGIRTFRAADGLWEEHRVEDVGTPEGFDRDPELVQAFYNAGRRQLQQPEIQPNAAHLALAKLQDALGDRFLLVTQNVDNLHERAGNTNVIHMHGELLKVRCSQSGQVLDWTGDVTPEDKCHCCQFPAPLRPHVVWFGEMPLGMDEIYMALSMADIFIAIGTSGHVYPAAGFVHEAKLHGAHTVELNLEPSQVGNEFAEKYYGPASQVVPEFVEKLLKGLKAGSIA | 1.19 rel. to wild-type | 10.23 rel. to wild-type | 0.77 rel. to wild-type | 2.11 rel. to wild-type
4 | Decrotonylase-1: E. coli CobB mutant A37R Y53G R56T I92R V148L (protein, Decrotonylase-1, E. coli CobB mutant A37R Y53G R56T I92R V148L) KPRVLVLTGAGISAESGIRTFRAADGLWEEHRVEDVRTPEGFDRDPELVQAFGNATRRQLQQPEIQPNAAHLALAKLQDALGDRFLLVTQNRDNLHERAGNTNVIHMHGELLKVRCSQSGQVLDWTGDVTPEDKCHCCQFPAPLRPHLVWFGEMPLGMDEIYMALSMADIFIAIGTSGHVYPAAGFVHEAKLHGAHTVELNLEPSQVGNEFAEKYYGPASQVVPEFVEKLLKGLKAGSIA | 0.00 rel. to wild-type | 0.02 rel. to wild-type | 0.04 rel. to wild-type | 0.10 rel. to wild-type
5 | Dealocase-1: E. coli CobB mutant A37S Y53W R56W I92V (protein, Dealocase-1, E. coli CobB mutant A37S Y53W R56W I92V) KPRVLVLTGAGISAESGIRTFRAADGLWEEHRVEDVSTPEGFDRDPELVQAFWNAWRRQLQQPEIQPNAAHLALAKLQDALGDRFLLVTQNVDNLHERAGNTNVIHMHGELLKVRCSQSGQVLDWTGDVTPEDKCHCCQFPAPLRPHVVWFGEMPLGMDEIYMALSMADIFIAIGTSGHVYPAAGFVHEAKLHGAHTVELNLEPSQVGNEFAEKYYGPASQVVPEFVEKLLKGLKAGSIA | 0.49 rel. to wild-type | 10.83 rel. to wild-type | 2.88 rel. to wild-type | 5.73 rel. to wild-type
